Test results taken from the supplement of paper PMC9170038.

Test system: MS2 coat protein
Assay: apparent KD of MS2 coat protein; designed switch direction (-1 OFF switch, 1 ON switch): 1; higher = weaker reporter binding
Procedure, shortened: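 Designed RNA switches with common flanks were made on Illumina chips by stalled E. coli RNA polymerase. Titration with SNAP-549-labelled MS2 coat protein doubled from 0.7 or 1.5 nM up to 3 µM. Apparent KD is each design's median over clusters after curve-fitting normalised fluorescence.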

[1] = Eterna round: R95, input ligand: FMN 200 uM
[2] = Eterna round: R95, input ligand: microRNA oligo, concentration not stated
[3] = Eterna round: R95, input ligand: none
[4] = input ligand: microRNA oligo, concentration not stated

Row | Sequence | apparent KD of MS2 coat protein [1] [µM] | apparent KD of MS2 coat protein [2] [µM] | apparent KD of MS2 coat protein [3] [µM] | apparent KD of MS2 coat protein (input ligand: FMN 200 uM) [µM] | apparent KD of MS2 coat protein [4] [µM] | apparent KD of MS2 coat protein (input ligand: none) [µM]
1 | CUCAAAACAAGUUGCAGUGUUCGUCUUUAACAUGAGGAUCACCCAUGUAAUAGCCCAGUAGAAGCGCUCGGGCCACC [Ceedbeen] (puzzle: Sensor for hsa-mir-208a) | 0.0345 | 0.0264 | 0.0319 |  |  | 
2 | CUCAAACAUGAGGAUCACCCAUGUGUUGUCAUGGGAGGAUAUCCCAGUUCGUUGUCGUCGGGAGAAGGCCUAUGUC [× ×•×ª×• ×ž×“×™× ×” × ×—×ª-14] (puzzle: Same State 1) |  | 0.0559 |  |  |  | 
3 | CUCAAACAUGAGGAUCACCCAUGUGUUGUCGUGGGAGGAUAUCCCGGUUCGGUGGCGUCGGGAGAAGGCCUAUGUC [× ×•×ª×• ×ž×“×™× ×” × ×—×ª-17] (puzzle: Same State 1) |  | 0.0548 |  |  |  | 
4 | CUCACUUGGGUAGGAUAUCUAGGAUAUGGGAAAGACUAAGUCUGUAGGUCACCUAACCCAGAUGGAGAGAAGGACCCAACACUC [pwkr ssNG2 2FMN + F9.38] (Eterna round: R96, puzzle: Same State NG 2) |  |  |  | 0.0579 | 0.00264 | 0.0331
5 | CUGAAAUGUCAAGGAUAUCACGUCGAUUAGACGUGAGAAGGUGAUCUGCACAUGAGGAUCACCCAUGUGUUACAUGGAAUUCAG [Brourd's SSNG1/1-A2 mod 13] (Eterna round: R96, puzzle: Same State NG 1) |  |  |  | 0.166 | 0.406 | 0.503
6 | CUGAGAUGUCAAGGAUAUCACGUCGAUUAGACGUGAGAAGGUGAUCUGCACAUGAGGAUCACCCAUGUGUUACAUGGAAUUCAG [Brourd's SSNG1/1-A2 mod 12] (Eterna round: R96, puzzle: Same State NG 1) |  |  |  | 0.567 | 0.278 | 0.889
7 | CUGAGCAAUCAAGGAUAUCACGUCGAAUAGACGUGAGAAGGUGAUCAUAACAUGAGGAUCACCCAUGUAUUACAUGAAGCUCAG [SSNG1/1-A1] (Eterna round: R96, puzzle: Same State NG 1) |  |  |  | 0.512 | 0.399 | 1.28
8 | CUGAGCAAUCAAGGAUAUCACGUCGAUUAGACGUGAGAAGGUGAUCAUAACAUGAGGAUCACCCAUGUAUUACAUGGAGCUCAG [Brourd's SSNG1/1-A2 mod 1] (Eterna round: R96, puzzle: Same State NG 1) |  |  |  | 0.533 | 0.124 | 0.397
9 | CUGAGCAAUCAAGGAUAUCACGUCGAUUAGACGUGAGAAGGUGAUCAUUACAUGAGGAUCACCCAUGUGUUACAUGGAGCUCAG [Brourd's SSNG1/1-A2 mod 3] (Eterna round: R96, puzzle: Same State NG 1) |  |  |  | 0.395 | 0.0549 | 0.159
10 | CUGAGCAGUCAAGGAUAUCACGUCGAUUAGACGUGAGAAGGUGAUUAAUACAUGAGGAUCACCCAUGUAAUACAUGAAGCUCAG [SSNG1/11-A2] (Eterna round: R96, puzzle: Same State NG 1) |  |  |  | 0.0138 | 0.0384 | 0.0419
11 | CUGCAACAUGAGGAUCACCCAUGUAACCCGGUUACAGGAUAUGUGAUGGUGAUCGACAUGACAGAAGGGUGAUUGG [Indiinbi] (puzzle: Same State 1) | 0.0415 | 0.0215 | 0.0295 |  |  | 
12 | CUGCACCGUGGAGGAUAUGGGCUGAGGCCAGGACAACCCUGGCCAACAUGAGGAUCACCCAUGUCCCAGAAGGCCACAGUGCUA [Zaenmaxe] (Eterna round: R96, puzzle: Same State NG 2) |  |  |  | 0.0151 | 0.0867 | 0.112
13 | CUGCGUAACACAGGAUAUACCUCCGCAAGGAACGUAGAAGGGUGAGUAGCAGACAUGAGGAUCACCCAUGUAAAGGCCAAGGCC [Enqudiso] (Eterna round: R96, puzzle: Same State NG 1) |  |  |  | 0.0484 | 0.0957 | 0.098
14 | CUGCUACAUGAGGAUCACCCAUGUUGGAGUGAUGCAGGAUAUGUGGGACCAGAAGAUGAAACAGAAGGGCAAAGAA [JR_SS!_Sub005] (puzzle: Same State 1) | 0.0984 | 0.119 | 0.0976 |  |  | 
15 | CUGCUACAUGAGGAUCACCCAUGUUGGAGUGAUGCAGGAUAUGUGUGACCAGAAGAUGAAACAGAAGGGCAAAGAA [JR_SS!_Sub004] (puzzle: Same State 1) | 0.0962 | 0.0757 | 0.101 |  |  | 
16 | CUGCUCGUGUGAGGAUAUGCCGCCGUUUCGGCUGCAGAAGGUGCUACGUUACAUGAGGAUCACCCAUGUCUCUGUUGUUUCGUU [salish99_SSNG1_r04_947] (Eterna round: R96, puzzle: Same State NG 1) |  |  |  | 0.0202 | 0.019 | 0.0228

Row | Sequence | apparent KD of MS2 coat protein [1] [µM] | apparent KD of MS2 coat protein [2] [µM] | apparent KD of MS2 coat protein [3] [µM] | apparent KD of MS2 coat protein (input ligand: FMN 200 uM) [µM] | apparent KD of MS2 coat protein [4] [µM] | apparent KD of MS2 coat protein (input ligand: none) [µM]
17 | CUGUGUUGCGGGCAGGAUAUGUAUUGGGAUACAUGAGGAUCACCCAUGUGCGGGUGUUUCACCCGACAGAAGGGCCAAUCGCGAC [JL-ss2-3.22 ViennaUCT mod] (puzzle: Same State 2) | 0.2 | 0.37 | 0.472 |  |  | 
18 | CUUAACAGAGGAGGAUAUGCAGAGGAUCACCCUGUAGAAGGCCACAGAGGAGGAUAUGCAGAGGAUCACCCUGUAGAAGGCCAC [pwkr ssNG DX.8] (Eterna round: R96, puzzle: Same State NG 1) |  |  |  | 0.622 | 0.143 | 0.281
19 | CUUCGGAAGCGAGGAUAUGCAGAGGAUCACCCUGCAGAAGGCGCAAAAGCGAGGAUAUGCAGAGGAUCACCCUGCAGAAGGCGC [pwkr ssNG DX.34] (Eterna round: R96, puzzle: Same State NG 1) |  |  |  | 0.043 | 0.0157 | 0.0324
20 | CUUGGGUGGCUGGAGGAUAUUCGAGUGGUAACAUGAGGAUCACCCAUGUGUCGCGCGGUACACGAGGAGAAGGCUGGCGGCCGGC (puzzle: Same State 2) |  | 0.0848 |  |  |  | 
21 | CUUUUUAAUGCAGGAUAUGAUCAACAUGAGGAUCACCCAUGUGGCGUUGUGAGUAGGGAGAGUGAUCAGAAGGGCAUCUCCUCG [SS-NG2-LRO08] (Eterna round: R96, puzzle: Same State NG 2) |  |  |  | 0.068 | 0.0451 | 0.0624
22 | GAAAAACAUGAGGAUCACCCAUGUGAGAAUAUGGGAGGAUAUACGAGGACGAGAGUCAAGGUAGAAGGCCUAAAAG [Garnet 75] (Eterna round: R96, puzzle: Same State 1) |  |  |  | 0.0453 | 0.255 | 0.314
23 | GAAAAGGCGACGCAGGAUAUGAAAGGUGAAACAUGAGGAUCACCCAUGUGCUACCUUCCGAUAAAUCAGAAGGGCGACGCCAAGC [Soleusat] (puzzle: Same State 2) | 0.00979 | 0.00854 | 0.0096 |  |  | 
24 | GAAAGAGGAAGCGAGGAUAUCGUGUUGAGUACAUGAGGAUCACCCAUGUUGUAGGUAGAGGUAGGCGAGAAGGCGCAGGAGAAGA [JR_SS2_Sub0101] (puzzle: Same State 2) | 0.06 | 0.0406 | 0.0554 |  |  | 
25 | GAAGACAUAGUUCAGGAUAUAGGAAUAGUCACAUGAGGAUCACCCAUGUGCAUUUAUAUGCGCACUUAGAAGGGAGGUAGUUAUC [SameState2 Malc#23] (Eterna round: R96, puzzle: Same State 2) |  |  |  | 0.0394 | 0.0294 | 0.0394
26 | GAAGCGGCAGAAUAAAACAUGAGGAUCACCCAUGUCGCGGUUUAGGAUAUGGGACGGGUAUGAACCCAGAAGGAGACCGCAGGC [Eternabot solution 2] (Eterna round: R96, puzzle: Same State NG 3) |  |  |  | 0.0327 | 0.0338 | 0.0562
27 | GAAGGAUGAGCGUAGGAUAUAGGAGGAGUGACAUGAGGAUCACCCAUGUAGUAAGAGGGAGGGUACUAGAAGGACGAGGAAGAAG [JR_SS2_Sub066] (puzzle: Same State 2) | 0.602 | 0.006 | 0.0163 |  |  | 
28 | GAAGGAUGAGCGUAGGAUAUAGGAGGAGUGACAUGAGGAUCACCCAUGUGGUAUGAGGGAGGAUUCUAGAAGGACGCGGUAGAAG [JR_SS2_Sub065] (puzzle: Same State 2) | 0.0899 | 0.15 | 0.161 |  |  | 
29 | GACCGCGAGGAAGGAUAUCGAGCCUUAUUGGCUCGAGAAGGUCCAUAAAGGACAUGAGGAUCACCCAUGUGGUGAGAAGCGGUC [Mat - Same State NG 1 - JL mod - D76] (Eterna round: R96, puzzle: Same State NG 1) |  |  |  | 0.187 | 1.43 | 1.16
30 | GACGAGGUGGGAGGAUAUAGCCCGUGGACUGUACCCGAACAUGAGGAUCACCCAUGUCGAGAAACCUAGAAGGCCUACAACGUA [Eternabot solution 11] (Eterna round: R96, puzzle: Same State NG 2) |  |  |  | 0.0168 | 0.0108 | 0.0384
31 | GAGAGAGGAAGCGAGGAUAUCGUGUUGAGUACAUGAGGAUCACCCAUGUUGUAGGUAGAGGUAGGCGAGAAGGCGCAGGAGAAGA [JR_SS2_Sub0100] (puzzle: Same State 2) | 0.0502 | 0.0393 | 0.041 |  |  | 
32 | GAGAGAGGAAGCGAGGAUAUCGUGUUGAGUACAUGAGGAUCACCCAUGUUGUAGGUAGAGGUAGGCGAGAAGGCGCAGGAGAGGG [JR_SS2_Sub099] (puzzle: Same State 2) | 0.043 | 0.0432 | 0.051 |  |  | 
